These are literature values, as cited in article PMC2827930.

The data set addresses RBPjκ (UniProt P31266).
Chain of UniProt P31266 (P31266 53-474): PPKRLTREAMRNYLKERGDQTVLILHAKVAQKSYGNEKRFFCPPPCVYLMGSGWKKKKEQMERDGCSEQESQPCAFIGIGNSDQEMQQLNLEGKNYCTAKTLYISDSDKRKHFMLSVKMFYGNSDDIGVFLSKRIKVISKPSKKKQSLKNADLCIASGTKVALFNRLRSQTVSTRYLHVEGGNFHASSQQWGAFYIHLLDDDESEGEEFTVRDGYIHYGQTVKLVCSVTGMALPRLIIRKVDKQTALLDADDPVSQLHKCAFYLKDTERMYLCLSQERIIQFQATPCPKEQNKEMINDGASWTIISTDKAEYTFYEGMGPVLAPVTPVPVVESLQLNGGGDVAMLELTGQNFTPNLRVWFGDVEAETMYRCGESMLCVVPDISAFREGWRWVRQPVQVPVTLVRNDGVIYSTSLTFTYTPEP

One may read the Kd as the constant that tells how readily two partners part at equilibrium. As for Notch RAM (from UniProt P46531), the Kd is 200 nM.
